Measurements published in US20180320194A1 (PURDUE RESEARCH FOUNDATION, published 2018).

Experiments:
[1] = biological target: T1, PP2CA (Arabidopsis, UniProt P49598 1-399); test: tandem affinity purification (anti-HA agarose, GFP-Trap) from seedlings, MS identification
T1 construct: Endogenous protein co-purified from seedlings and identified by MS
T1 sequence (looked up): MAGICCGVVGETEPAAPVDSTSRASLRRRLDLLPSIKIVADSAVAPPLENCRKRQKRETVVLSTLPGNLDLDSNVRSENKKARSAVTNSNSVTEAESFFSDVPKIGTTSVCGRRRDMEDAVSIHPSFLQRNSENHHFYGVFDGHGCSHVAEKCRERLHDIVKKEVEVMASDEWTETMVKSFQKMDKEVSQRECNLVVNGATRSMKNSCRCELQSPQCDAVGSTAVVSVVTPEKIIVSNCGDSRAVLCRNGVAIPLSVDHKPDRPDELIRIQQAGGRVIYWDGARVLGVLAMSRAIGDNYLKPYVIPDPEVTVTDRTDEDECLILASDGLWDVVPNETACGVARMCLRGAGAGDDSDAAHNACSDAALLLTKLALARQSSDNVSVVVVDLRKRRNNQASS
Method: (§1) Ten-day-old seedlings of the transgenic Arabidopsis plants expressing ProPYL9:PYL9-HA-YFP (FIG. 12A) were used for tandem affinity purification. Seedlings (3-4 g fresh weight) were treated for 1 h with ½ Murashige and Skoog medium containing 100 μM ABA or 30 min with ½ Murashige and Skoog medium containing 0.8 M mannitol; for the control, seedlings were treated with ½ Murashige and Skoog medium for 1 h. After treatment, samples were quickly frozen, ground in liquid N₂, homogenized in an equal volume of 2× immunoprecipitation (IP) buffer (100 mM Tris.HCl, pH 7.5, 300 mM NaCl, 2 mM EDTA, 0.2% Nonidet P-40, 2× protease mixture; Roche), and then, centrifuged at 30,000×g for 30 min at 4° C. The supernatant was passed through a 0.2-μM filter and centrifuged again at 30,000×g for 30 min at 4° C. After that, the supernatant was incubated with 40 μL 50% (vol/vol) slurry of monoclonal anti-HA agarose with antibody produced in mouse (A2095; Sigma), which was prebalanced with 1×IP buffer. The mixture was inverted for 1 h at 4° C. on a shaker. The agarose was then washed four times with 1×IP buffer, three times with high NaCl buffer (50 mM Tris.HCl, pH 7.5, 500 mM NaCl, 1 mM EDTA), and finally, three times with 1×IP buffer. The protein that had bound to the anti-HA agarose was eluted by HA peptide (ab13835; Abcam) with a concentration of […] in 200 μL 1×IP buffer overnight at 4° C. […]

[2] = biological target: T2, ABA-insensitive 1 (ABI1) (Arabidopsis, UniProt P49597 1-434); test: as above
T2 construct: Endogenous protein in the TAP-MS experiment
T2 sequence (looked up): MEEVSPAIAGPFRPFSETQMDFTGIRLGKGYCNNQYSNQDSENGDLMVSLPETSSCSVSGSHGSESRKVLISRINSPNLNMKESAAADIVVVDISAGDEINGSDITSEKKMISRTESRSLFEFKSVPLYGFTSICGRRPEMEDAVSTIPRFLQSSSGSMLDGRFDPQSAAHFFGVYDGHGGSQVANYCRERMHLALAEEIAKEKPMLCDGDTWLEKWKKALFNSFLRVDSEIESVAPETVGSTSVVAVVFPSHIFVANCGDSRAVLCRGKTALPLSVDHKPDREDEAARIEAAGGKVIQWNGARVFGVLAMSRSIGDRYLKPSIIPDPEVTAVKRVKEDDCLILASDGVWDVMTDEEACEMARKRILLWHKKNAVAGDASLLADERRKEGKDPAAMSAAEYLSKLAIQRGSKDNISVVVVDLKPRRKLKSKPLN
Method: as §1

[3] = biological target: T3, ABF2, Q9M7Q4
T3 chain: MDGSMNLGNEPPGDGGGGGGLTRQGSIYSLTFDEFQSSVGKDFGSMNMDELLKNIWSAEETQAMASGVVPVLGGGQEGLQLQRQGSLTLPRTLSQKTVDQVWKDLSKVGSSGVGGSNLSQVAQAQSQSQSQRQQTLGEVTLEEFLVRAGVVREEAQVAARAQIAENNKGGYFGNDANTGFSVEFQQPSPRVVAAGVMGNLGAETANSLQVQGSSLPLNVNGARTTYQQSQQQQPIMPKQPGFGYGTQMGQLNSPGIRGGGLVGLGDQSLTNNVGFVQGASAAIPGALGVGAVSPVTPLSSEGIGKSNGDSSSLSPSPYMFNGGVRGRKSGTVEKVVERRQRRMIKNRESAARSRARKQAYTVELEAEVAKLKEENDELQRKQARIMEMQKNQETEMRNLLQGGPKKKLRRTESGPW

[4] = biological target: T4, PYL9 fused to the GAL4-DNA-binding domain (BD-PYL9) (Arabidopsis); test: yeast two-hybrid, growth on media lacking His with and without ABA
T4 construct: Y2H bait; also called pBD-GAL4-PYL9

B1: HA- and YFP-tagged PYL9 (PYL9-HA-YFP) (receptor)
chain: MMDGVEGGTAMYGGLETVQYVRTHHQHLCRENQCTSALVKHIKAPLHLVWSLVRRFDQPQKYKPFVSRCTVIGDPEIGSLREVNVKSGLPATTSTERLELLDDEEHILGIKIIGGDHRLKNYSSILTVHPEIIEGRAGTMVIESFVVDVPQGNTKDETCYFVEALIRCNLKSLADVSERLASQDITQ
notes: Expressed under the native PYL9 promoter in transgenic Arabidopsis seedlings; also called ProPYL9:PYL9-HA-YFP; not shown: 3HA tag at the C terminus; YFP tag at the C terminus
binding result [1]: binds | binding result [2]: binds

B2: SnRK2.6 (protein)
chain: MDRPAVSGPMDLPIMHDSDRYELVKDIGSGNFGVARLMRDKQSNELVAVKYIERGEKIDENVKREIINHRSLRHPNIVRFKEVILTPTHLAIVMEYASGGELFERICNAGRFSEDEARFFFQQLISGVSYCHAMQVCHRDLKLENTLLDGSPAPRLKICDFGYSKSSVLHSQPKSTVGTPAYIAPEVLLKKEYDGKVADVWSCGVTLYVMLVGAYPFEDPEEPKNFRKTIHRILNVQYAIPDYVHISPECRHLISRIFVADPAKRISIPEIRNHEWFLKNLPADLMNDNTMTTQFDESDQPGQSIEEIMQIIAEATVPPAGTQNLNHYLTGSLDIDDDMEEDLESDLDDLDIDSSGEIVYAM
SAG12-LUC expression in protoplasts [3]: Expression of SnRK2.6 significantly enhanced the ability of ABF2 to increase SAG12-LUC expression in the presence of ABA

B3: activating domain (AD) alone (other, UniProt P04386 768-881, looked up)
chain: ANFNQSGNIADSSLSFTFTNSSNGPNLITTQTNSQALSQPIASSNVHDNFMNNEITASKIDDGNNSKPLSPGWTDQTAYNAFGITTGMFNTTTMDDVYNYLFDDEDTPPNPKKE
notes: Negative control prey in the Y2H assay
binding result [4]: no binding
